Broadly, the Kd is the constant that tells how readily two partners part at equilibrium.

These results are taken from EP4335867A1 (Cellemedy Co., Ltd, dated 2024).

The target in this test is T1, human transferrin receptor-Fc tag standard (human, UniProt P02786 89-760, limits assumed).
T1 construct: Coated on a 96 well plate at 2 ug/ml; also called hTfR; not shown: Fc tag
Nature of the test: ELISA on plate-bound hTfR-Fc with anti-His detection; Kd calculated from an expected saturation point, since the curve was not saturated.

T1 sequence (P02786 89-760 limits assumed): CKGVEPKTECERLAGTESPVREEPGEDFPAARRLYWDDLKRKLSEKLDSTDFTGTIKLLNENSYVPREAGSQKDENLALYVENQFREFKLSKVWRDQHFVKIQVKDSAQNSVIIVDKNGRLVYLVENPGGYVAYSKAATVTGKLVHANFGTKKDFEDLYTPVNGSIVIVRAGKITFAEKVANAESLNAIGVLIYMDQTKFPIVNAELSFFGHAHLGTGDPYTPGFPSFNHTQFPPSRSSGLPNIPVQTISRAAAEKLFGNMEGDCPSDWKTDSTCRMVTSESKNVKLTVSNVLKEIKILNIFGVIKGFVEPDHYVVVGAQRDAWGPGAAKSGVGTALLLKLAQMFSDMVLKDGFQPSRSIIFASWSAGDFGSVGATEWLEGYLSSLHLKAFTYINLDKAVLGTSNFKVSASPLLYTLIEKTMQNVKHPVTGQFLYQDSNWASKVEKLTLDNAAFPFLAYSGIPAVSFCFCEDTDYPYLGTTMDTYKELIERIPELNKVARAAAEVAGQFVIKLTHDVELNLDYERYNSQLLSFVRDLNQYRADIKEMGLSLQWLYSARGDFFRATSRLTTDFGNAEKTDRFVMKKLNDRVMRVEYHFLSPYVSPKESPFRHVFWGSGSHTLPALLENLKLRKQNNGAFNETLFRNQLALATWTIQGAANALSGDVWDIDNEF

B1: huHF_Mutant2-dual (designed binder)
chain: MTTASTSQVRQNYHAASEAAINAQINLELYASYVYLSMSYYFDRDDVALKNFAKYFLHQSHEEREHAEKLMKLQNQRGGRIALADIQKPDCDDGGSYGSLYAFDIWESGLNAMECALHLEKNVNQSLLALHALATAKNDPHLCDFIETHYLNEQVKAIKELGDHVTNLRKMGAPESGLAEYLFDKHTLGDSDNESMPSFITLASLSTWEGYFDF
notes: Spherical nanoparticle of 24 self-assembled monomers, made in E. coli; not shown: A hexa-His tag is present (Ni-NTA purification, anti-His detection)
As for B1, the Kd is ~4.4 µM.
